Measurements taken from patent publication US20220402985A1.
Where a chain is given by its changes, count along the chain named. Names and notes keep the numbering of the source. Values joined by “and” are separate entries in the source; they are usually repeats but may differ in a detail not shown here. Identical values can stand only once.

B1: huNRG1(S177-Q237)(1A1)::GG::huFcSEFL2 (Pb) (Fc fusion)
chain: SHLVKCGESEKSFCVNGGECYVIEDSSIPSRFLCKCPNEFTGDRCQNVFLASFYKAEELYQGGDKTHTCPPCPAPELLGGPSVFLFPPKPKDTLMISRTPEVTCVVVDVSHEDPEVKFNWYVDGVEVHNAKTKPCEEQYGSTYRCVSVLTVLHQDWLNGKEYKCKVSNKALPAPIEKTISKAKGQPREPQVYTLPPSREEMTKNQVSLTCLVKGFYPSDIAVEWESNGQPENNYKTTPPVLDSDGSFFLYSKLTVDKSRWQQGNVFSCSVMHEALHNHYTQKSLSLSPGK
B2: huNRG1(S177-F229)(NRGE1C) 6xHis (ligand)
chain: SHLVKCGEKHKSFCVNGGECFMIEGPSNPSRYLCKCPNEFTGDRCQEDFMASFGGGGEGGGGAGGGGHHHHHH
B3: huNRG1(S177-F229)(NRGE1D) (E47T_D48S_F49L_M50L) 6xHis (ligand)
chain: B2 chain with K9S, F21Y, I23V, P26S, N28I, E47T, D48S, F49L, M50L
B4: huNRG1(S177-F229)(NRGE1D) (E47S_D48S_F49E_M50L) 6xHis (ligand)
chain: B2 chain with K9S, F21Y, I23V, P26S, N28I, E47S, D48S, F49E, M50L
B5: huNRG1(S177-F229)(NRGE1D) (E47K_D48L_F49D_M50I) 6xHis (ligand)
chain: B2 chain with K9S, F21Y, I23V, P26S, N28I, E47K, D48L, F49D, M50I
B6: huNRG1(S177-F229)(NRGE1D) (E47V_D48T_F49R_M50L) 6xHis (ligand)
chain: B2 chain with K9S, F21Y, I23V, P26S, N28I, E47V, D48T, F49R, M50L
B7: huNRG1(S177-F229)(NRGE1D) 6xHis (ligand)
chain: B2 chain with K9S, F21Y, I23V, P26S, N28I
B8: huNRG1(S177-F229)(NRGE1C) (D48T_F49Q_M50I) 6xHis (ligand)
chain: B2 chain with D48T, F49Q, M50I
B9: huNRG1(S177-F229)(NRGE1C) (E47S_D48A_F49L_M50T) 6xHis (ligand)
chain: B2 chain with E47S, D48A, F49L, M50T
B10: huNRG1(S177-F229)(NRGE1C) (E47S_D48T_F49R_M50V) 6xHis (ligand)
chain: B2 chain with E47S, D48T, F49R, M50V
B11: huNRG1(S177-F229)(NRGE1C) (E47A_D48P_F49H_M50I) 6xHis (ligand)
chain: B2 chain with E47A, D48P, F49H, M50I
B12: huNRG1(S177-F229)(NRGE1C) (E47K_D48T_F49S_M50L) 6xHis (ligand)
chain: B2 chain with E47K, D48T, F49S, M50L
B13: huNRG1(S177-Q237)(NRGE1P)::GG::huFcSEFL2 (Pb) (Fc fusion)
chain: SHLVKCAESHKSFCVNGGECFMIEGPSNPSRYLCKCPNEFTGDRCQDFFMASFYKAEELYQGGDKTHTCPPCPAPELLGGPSVFLFPPKPKDTLMISRTPEVTCVVVDVSHEDPEVKFNWYVDGVEVHNAKTKPCEEQYGSTYRCVSVLTVLHQDWLNGKEYKCKVSNKALPAPIEKTISKAKGQPREPQVYTLPPSREEMTKNQVSLTCLVKGFYPSDIAVEWESNGQPENNYKTTPPVLDSDGSFFLYSKLTVDKSRWQQGNVFSCSVMHEALHNHYTQKSLSLSPGK
B14: huNRG1(S177-Q237)(1A7)::GG::huFcSEFL2 (Pb) (Fc fusion)
chain: B13 chain with S9R, H10D, F21Y, M22V, G25H, P26L, Y32F, D47K, F48D
B15: huNRG1(S177-Q237)(1A12)::GG::huFcSEFL2 (Pb) (Fc fusion)
chain: B13 chain with S9K, F21Y, M22V, I23V, G25R, N28I, D47K
B16: huNRG1(S177-Q237)(1C11)::GG::huFcSEFL2 (Pb) (Fc fusion)
chain: B1 chain with S9K, S12T, V22M, I23V, D25R, S26P, N47K, V48F, L50M
B17: huNRG1(S177-Q237)(1D10)::GG::huFcSEFL2 (Pb) (Fc fusion)
chain: B13 chain with S9R, H10D, S12T, F21Y, G25D, P26L, N28I, D47K, F48D
B18: huNRG1(S177-Q237)(1D3)::GG::huFcSEFL2 (Pb) (Fc fusion)
chain: B1 chain with S9N, E10D, Y21F, S26P, F32Y, V48D
B19: huNRG1(S177-Q237)(2E3)::GG::huFcSEFL2 (Pb) (Fc fusion)
chain: B1 chain with S9K, V22M, D25G, S26L, N47D, L50M
B20: huNRG1(S177-Q237)(1B9)::GG::huFcSEFL2 (Pb) (Fc fusion)
chain: B13 chain with S9K, I23V, G25D, P26L, N28I, F48V
B21: huNRG1(S177-Q237)(1B4)::GG::huFcSEFL2 (Pb) (Fc fusion)
chain: B13 chain with A7G, S9R, H10D, S12T, G25D, P26S, D47K, F48D
B22: huNRG1(S177-F229) 6xHis (ligand)
chain: SHLVKCAEKEKTFCVNGGECFMVKDLSNPSRYLCKCPNEFTGDRCQNYVMASFGGGGEGGGGAGGGGHHHHHH
B23: huNRG1(S177-F229)(NRGE1D)::1KmodT482V, M493L)::huFcSEFL2 (Pb) (Fc fusion)
chain: SHLVKCGESHKSFCVNGGECYMVEGSSIPSRYLCKCPNEFTGDRCQEDFMASFGSGSATGGSGSVASSGSGSATHLDKTHTCPPCPAPELLGGPSVFLFPPKPKDTLMISRTPEVTCVVVDVSHEDPEVKFNWYVDGVEVHNAKTKPCEEQYGSTYRCVSVLTVLHQDWLNGKEYKCKVSNKALPAPIEKTISKAKGQPREPQVYTLPPSREEMTKNQVSLTCLVKGFYPSDIAVEWESNGQPENNYKTTPPVLDSDGSFFLYSKLTVDKSRWQQGNVFSCSVMHEALHNHYTQKSLSLSPGK

Each binder was assayed against ErbB3 on rat Schwann cells (rat) (UniProt Q62799) (assay: cell-based or functional assay).
ErbB3 on rat Schwann cells (rat), sequence (Q62799 20-1339): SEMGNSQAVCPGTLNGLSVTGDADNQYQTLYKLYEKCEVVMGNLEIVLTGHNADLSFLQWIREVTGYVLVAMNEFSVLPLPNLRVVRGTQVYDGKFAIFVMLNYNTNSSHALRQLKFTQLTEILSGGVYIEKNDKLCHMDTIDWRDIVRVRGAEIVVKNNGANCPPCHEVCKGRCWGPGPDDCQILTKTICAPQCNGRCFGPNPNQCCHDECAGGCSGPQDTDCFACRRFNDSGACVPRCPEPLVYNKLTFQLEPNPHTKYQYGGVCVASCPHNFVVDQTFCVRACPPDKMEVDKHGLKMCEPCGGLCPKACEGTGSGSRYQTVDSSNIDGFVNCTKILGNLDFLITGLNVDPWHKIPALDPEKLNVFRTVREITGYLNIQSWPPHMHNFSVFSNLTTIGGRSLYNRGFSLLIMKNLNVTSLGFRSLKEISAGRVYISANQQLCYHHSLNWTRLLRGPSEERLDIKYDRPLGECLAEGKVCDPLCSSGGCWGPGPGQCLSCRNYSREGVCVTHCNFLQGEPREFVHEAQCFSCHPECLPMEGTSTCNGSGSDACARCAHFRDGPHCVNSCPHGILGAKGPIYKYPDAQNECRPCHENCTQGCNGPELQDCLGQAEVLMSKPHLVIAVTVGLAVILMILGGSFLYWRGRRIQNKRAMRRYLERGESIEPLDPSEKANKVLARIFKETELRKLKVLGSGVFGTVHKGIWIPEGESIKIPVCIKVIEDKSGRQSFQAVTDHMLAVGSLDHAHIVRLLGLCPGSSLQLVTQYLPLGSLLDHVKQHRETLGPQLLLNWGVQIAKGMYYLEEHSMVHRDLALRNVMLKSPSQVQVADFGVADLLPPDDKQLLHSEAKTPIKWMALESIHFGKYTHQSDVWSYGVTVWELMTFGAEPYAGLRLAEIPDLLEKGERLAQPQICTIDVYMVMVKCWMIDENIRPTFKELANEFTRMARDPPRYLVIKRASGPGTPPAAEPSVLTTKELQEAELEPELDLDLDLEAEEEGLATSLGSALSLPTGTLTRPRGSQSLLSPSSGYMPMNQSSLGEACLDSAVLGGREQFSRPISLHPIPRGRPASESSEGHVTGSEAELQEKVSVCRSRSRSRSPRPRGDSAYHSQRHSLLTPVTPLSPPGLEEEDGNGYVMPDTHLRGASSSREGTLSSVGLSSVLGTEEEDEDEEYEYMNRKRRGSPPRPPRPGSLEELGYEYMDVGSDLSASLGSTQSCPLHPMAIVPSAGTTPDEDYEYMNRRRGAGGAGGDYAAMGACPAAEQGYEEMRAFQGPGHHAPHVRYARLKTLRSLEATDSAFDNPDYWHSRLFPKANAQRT

Row | Binder | Schwann cells (SC) (ErbB3) Avg EC50
1 | B1 | 9.11 nM
2 | B2 | 10000 nM
3 | B3 | 10000 nM
4 | B4 | 10000 nM
5 | B5 | 17.2 nM
6 | B6 | 10000 nM
7 | B7 | 10000 nM
8 | B8 | 10000 nM
9 | B9 | 10000 nM
10 | B10 | 10000 nM
11 | B11 | 10000 nM
12 | B12 | 10000 nM
13 | B13 | 510 nM
14 | B14 | 1000 nM
15 | B15 | 47.9 nM
16 | B16 | 87 nM
17 | B17 | > 3000 nM
18 | B18 | > 10000 nM and 10000 nM
19 | B19 | 1000 nM
20 | B20 | 1000 nM
21 | B21 | 10000 nM
22 | B22 | 3.62 nM
23 | B23 | > 10000 nM

What follows are binders tested against ErbB4 on neonatal rat cardiomyocytes (rat) (UniProt Q62956) (assay: cell-based or functional assay).
ErbB4 on neonatal rat cardiomyocytes (rat), sequence (Q62956 26-1308): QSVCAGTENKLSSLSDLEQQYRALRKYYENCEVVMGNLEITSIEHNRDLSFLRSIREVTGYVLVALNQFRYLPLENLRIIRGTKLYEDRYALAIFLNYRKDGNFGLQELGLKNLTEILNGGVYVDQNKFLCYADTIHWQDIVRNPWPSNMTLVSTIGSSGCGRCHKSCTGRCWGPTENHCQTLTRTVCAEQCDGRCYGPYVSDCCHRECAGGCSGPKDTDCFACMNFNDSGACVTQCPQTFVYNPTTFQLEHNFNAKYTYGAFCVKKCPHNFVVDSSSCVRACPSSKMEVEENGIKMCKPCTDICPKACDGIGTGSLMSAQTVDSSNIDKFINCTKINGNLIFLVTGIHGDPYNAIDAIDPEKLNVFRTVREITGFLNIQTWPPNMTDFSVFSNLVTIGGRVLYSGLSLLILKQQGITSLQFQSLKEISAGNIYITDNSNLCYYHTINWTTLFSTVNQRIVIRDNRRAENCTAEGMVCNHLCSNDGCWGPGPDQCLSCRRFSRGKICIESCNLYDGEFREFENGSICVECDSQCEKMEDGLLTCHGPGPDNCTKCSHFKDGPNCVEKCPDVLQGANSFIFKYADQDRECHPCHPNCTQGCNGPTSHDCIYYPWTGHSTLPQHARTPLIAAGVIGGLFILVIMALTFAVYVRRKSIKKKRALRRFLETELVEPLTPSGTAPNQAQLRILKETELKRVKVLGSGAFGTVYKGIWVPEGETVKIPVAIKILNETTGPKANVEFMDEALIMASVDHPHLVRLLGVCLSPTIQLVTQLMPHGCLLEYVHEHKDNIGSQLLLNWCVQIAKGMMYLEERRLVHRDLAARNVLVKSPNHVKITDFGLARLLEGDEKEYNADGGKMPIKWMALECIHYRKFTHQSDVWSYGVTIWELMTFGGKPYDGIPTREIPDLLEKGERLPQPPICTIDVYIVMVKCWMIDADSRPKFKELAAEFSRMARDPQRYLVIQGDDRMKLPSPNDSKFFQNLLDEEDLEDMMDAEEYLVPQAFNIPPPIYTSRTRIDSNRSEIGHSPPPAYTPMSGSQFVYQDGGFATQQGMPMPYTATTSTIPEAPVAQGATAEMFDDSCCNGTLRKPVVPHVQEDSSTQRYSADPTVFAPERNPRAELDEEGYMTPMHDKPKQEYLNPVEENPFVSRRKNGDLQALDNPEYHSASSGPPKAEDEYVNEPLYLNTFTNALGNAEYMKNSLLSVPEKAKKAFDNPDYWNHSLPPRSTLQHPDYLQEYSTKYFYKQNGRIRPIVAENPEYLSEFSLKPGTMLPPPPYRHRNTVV

Row | Binder | Cardiomyocyte (CM) (ErbB4) Avg EC50 | Selectivity SC/CM | CM % Agonism AVG [%]
24 | B1 | 0.133 nM | 69 | 
25 | B2 | 1.44 nM | > 10000 | 106
26 | B3 | 0.33 nM | > 10000 | 99.8
27 | B4 | 0.557 nM | > 10000 | 96
28 | B5 | 0.311 nM | 55.4 | 91.7
29 | B6 | 0.224 nM | > 10000 | 98
30 | B7 | 0.39 nM | > 10000 | 90.7
31 | B8 | 0.712 nM | > 10000 | 106
32 | B9 | 0.695 nM | > 10000 | 85.9
33 | B10 | 0.58 nM | > 10000 | 87.5
34 | B11 | 1.1 nM | > 10000 | 96.5
35 | B12 | 0.825 nM | > 10000 | 91.8
36 | B13 | 2.22 nM | 229 | 28
37 | B14 | 0.619 nM | 1620 | 
38 | B15 | 0.722 nM | 66 | 
39 | B16 | 1.1 nM | 79 | 
40 | B17 | 0.741 nM | > 4000 | 
41 | B18 | 1.62 nM and 0.772 nM | > 10000 | 78
42 | B19 | 0.658 nM | 1520 | < 50
43 | B20 | 1.92 nM | 520 | < 50
44 | B21 | 0.996 nM | > 10000 | 
45 | B22 | 0.587 nM | 6.17 | 97.5
46 | B23 | 0.34 nM | > 10000 | 83.4
